Measurements from the supplement of paper PMC10567573.

B1: SLC6A17 (parent)
chain: HMFTPKLDKMLDPQVWREAATQVF

Variants of: B1
Test: protein stability index of a GFP-peptide fusion (GPS, HEK-293T) (PSI 1-6); higher = more stable
Details: c terminus: a fixed tail appended
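Further: lentivirally expressed fusions sorted by FACS into six bins by GFP to DsRed ratio, PSI derived from sequencing read proportions per bin multiplied by bin number.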

Protein stability index: each site, then its substitutions
K9: V 1.5; A 1.21; D 2.63; W 2.95; E 1.58; P 3.02; M 2.03; L 1.83; N 2.04; I 1.66; H 2.94; G 1.25; T 2.1; S 1.53; Q 1.92; Y 1.33; R 2.42; F 1.52
P5: E 2.4; R 1.78; I 3.2; C 1.53; G 1.61; Y 2.08; K 1.69; L 1.55; M 1.03; H 1.85; W 1.3; T 1.53; D 2.61; V 1.69; Q 2.49; S 2.09; A 2.46
M2: Y 2.84; Q 2.52; L 1.71; R 2.56; V 1.62; F 1.65; D 2.34; G 1.92; A 1.9; I 2.53; C 2.01; W 1.81; T 2.14; S 2.03; E 2.49; H 2.49; P 2.36; K 2.13; N 2.43
F3: M 1.81; A 2.2; H 2.17; D 2.69; S 2.27; C 2.25; E 3.49; G 1.91; N 2.86; L 1.99; Q 2.17; I 2.45; P 2.65; R 2.4; K 1.98; T 2.01; V 2.7; W 2.07; Y 2.6
K6: C 1.98; S 1.89; F 1.65; H 1.83; Y 2.85; P 2.01; M 1.62; A 1.99; Q 1.51; L 2.1; G 1.8; I 1.7; W 2.1; V 1.24; T 1.74; N 2.11; E 1.74; D 2.67; R 1.76
H1: G 1.79; F 2.13; D 2.3; C 1.56; S 2.06; E 2.17; T 1.46; P 2.72; R 1.98; K 1.5; Y 1.79; A 2.73; M 2.74; V 2.51; Q 2.29; L 1.88; N 1.56
L7: N 1.99; H 1.79; Q 2.55; D 2.55; F 1.8; C 1.86; A 1.94; V 1.79; K 2.73; E 2.86; R 1.89; P 2.1; G 2.24; M 2.38; T 2.27; W 1.62; Y 1.46; I 1.4; S 2.02
T4: Y 2.11; A 2.4; M 2.97; W 2.21; S 2.67; P 2.07; R 2.39; D 1.76; Q 1.8; H 1.79; L 2.69; N 1.39; E 2.31; K 1.67; C 2.49; G 2.1; F 1.9; I 1.45
D8: N 2.33; Y 2; S 2.3; K 2.79; T 2.27; H 1.84; P 3.01; V 1.34; W 1.86; F 2.81; G 2.06; R 3.33; I 1.65; E 1.5; M 1.81; L 1.76; Q 1.87; A 1.82; C 1.67
M10: D 2.63; C 2.31
